The Kd is a measure of binding affinity in units of concentration. Low readings indicate tighter binding, high ones weaker binding.

We go through 2 substances from article doi:10.1101/2024.10.17.618658.

Experiment [1] has as its target human Juno glycosylated ectodomain (ECD), wild type, with C-terminal SpyTag (human) (UniProt A6ND01). The experiment can be described thus: flow cytometry-based bead-binding assay. On the technique in general: In flow cytometry, cells or beads pass a laser one at a time.
Experiment [2] deals with human Juno ectodomain, infertility-associated variant H177Q, with C-terminal SpyTag (human) (UniProt A6ND01). In words: flow cytometry-based bead-binding assay.
The target in experiment [3] is human Juno glycosylated ectodomain (ECD), wild type, with C-terminal SpyTag (human) (UniProt A6ND01). In words: AFM-based single-molecule force spectroscopy.
The target of experiment [4] is human Juno ectodomain, infertility-associated variant H177Q, with C-terminal SpyTag (human) (UniProt A6ND01). In words: AFM-based single-molecule force spectroscopy.

As for “human Izumo1 ectodomain K150A with C-terminal SpyTag (from UniProt Q8IYV9 22-292) (domain or fragment)”, the Kd in experiment [1] was determined as 110 nM.
Take “human Izumo1 glycosylated ectodomain (ECD), wild type, with C-terminal SpyTag (from UniProt Q8IYV9 22-292) (domain or fragment)”: the Kd in experiment [1] was found to be 45 nM; in experiment [2], 64 nM. In addition, the median bond lifetime under clamped force (before the slip-to-catch transition) in experiment [3] came out at 0.02 s. Besides, in experiment [3], the median bond lifetime under clamped force (peak of the catch bond, 40-50 pN) amounted to 0.15 s. In addition, the average median peak bond lifetime under clamped force (40-50 pN) in experiment [4] was determined as 0.17 s.
